Laboratory results published in patent publication US20080050810A1.

Experiments:
[1] = biological target: anti-CC49 variable region antibodies in the serum of patient five; experiment: HPLC, 125I-HuCC49 + serum + 5 Tg competitor; fewer complexes = competitor bound
[2] = biological target: anti-CC49 variable region antibodies in the serum of patient one; experiment: as above
[3] = biological target: anti-CC49 variable region antibodies in the serum of patient six; experiment: as above
[4] = biological target: anti-CC49 variable region antibodies in the serum of patient four; experiment: as above
[5] = biological target: anti-CC49 variable region antibodies in the serum of patient three; experiment: as above
[6] = biological target: anti-CC49 variable region antibodies in the serum of patient two; experiment: as above
[7] = biological target: TAG-72 positive bovine submaxillary mucin (BSM) (bovine); experiment: relative affinity constant from competition RIA on BSM
[8] = biological target: anti-idiotypic antibodies in the serum of one patient who had received ^177Lu-CC49 (Example V, patient not named); experiment: size-exclusion HPLC competition vs 125I-HuCC49 + patient serum
[9] = biological target: anti-CC49 variable region antibodies in the serum of patient six; experiment: HPLC, serial dilutions of cold competitor vs 125I-HuCC49 + CP serum
[10] = biological target: mouse anti-idiotypic MAb AI49-1; experiment: competition RIA vs 125I-CC49 on AI49-1-coated wells
[11] = biological target: mouse anti-idiotypic MAb AI49-3; experiment: competition RIA vs 125I-CC49 on AI49-3-coated wells

fold less Ka than HuCC49 [7] | Ka [7] | Binder | percent of complexes [1] | percent of complexes [2] | percent of complexes [3] | percent of complexes [4] | percent of complexes [5] | percent of complexes [6] | other results
2 fold | – | HuCC49 CDR variant L-1 (antibody, V domains shown) VH: QVQLVQSGAEVVKPGASVKISCKASGYTFTDHAIHWVKQNPGQRLEWIGYFSPGNDDFKYNERFKGKATLTADTSASTAYVELSSLRSEDTAVYFCTRSLNMAYWGQGTLVTVSS VL: DIVMSQSPDSLAVSLGERVTLNCKSSQSVLYSSNSKNYLAWYQQKPGQSPKLLIYWASARESGVPDRFSGSGSGTDFTLTISSVQAEDVAVYYCQQYYSYPLTFGAGTKLELK | 14.3% | 16% | 16.9% | 9.8% | 12.2% | 10.1% | amount of competitor for 50% inhibition of complex formation [8]: 0.7 Tg
– | – | HuCC49 CDR variant L-2 (antibody, V domains shown) VH: QVQLVQSGAEVVKPGASVKISCKASGYTFTDHAIHWVKQNPGQRLEWIGYFSPGNDDFKYNERFKGKATLTADTSASTAYVELSSLRSEDTAVYFCTRSLNMAYWGQGTLVTVSS VL: DIVMSQSPDSLAVSLGERVTLNCKSSQSLLYSGNQKNYLAWYQQKPGQSPKLLIYWASTRESGVPDRFSGSGSGTDFTLTISSVQAEDVAVYYCQQYYSYPLTFGAGTKLELK | 2.4% | 2.7% | 3% | 2.7% | 3.4% | 4.4% | fold better competition than HuCC49 [8]: 2 fold
– | – | HuCC49 CDR variant H-1 (antibody, V domains shown) VH: QVQLVQSGAEVVKPGASVKISCKASGYTFTSYAMHWVKQNPGQRLEWIGYFSPGNDDFKYNERFKGKATLTADTSASTAYVELSSLRSEDTAVYFCTRSLNMAYWGQGTLVTVSS VL: DIVMSQSPDSLAVSLGERVTLNCKSSQSLLYSGNQKNYLAWYQQKPGQSPKLLIYWASARESGVPDRFSGSGSGTDFTLTISSVQAEDVAVYYCQQYYSYPLTFGAGTKLELK | 3.5% | 10.2% | 5.8% | 3.3% | 3.9% | 7% | –
2 fold | – | HuCC49 CDR variant L-1,2 (antibody, V domains shown) VH: QVQLVQSGAEVVKPGASVKISCKASGYTFTDHAIHWVKQNPGQRLEWIGYFSPGNDDFKYNERFKGKATLTADTSASTAYVELSSLRSEDTAVYFCTRSLNMAYWGQGTLVTVSS VL: DIVMSQSPDSLAVSLGERVTLNCKSSQSVLYSSNSKNYLAWYQQKPGQSPKLLIYWASTRESGVPDRFSGSGSGTDFTLTISSVQAEDVAVYYCQQYYSYPLTFGAGTKLELK | 20.2% | 24.6% | 15.7% | 12.6% | 24.5% | 19.4% | –
– | 5.48e+08 M⁻¹ | HuCC49 variant MAb ^97L/^60-62,64H (antibody, V domains shown) VH: QVQLVQSGAEVVKPGASVKISCKASGYTFTDHAIHWVKQNPGQRLEWIGYFSPGNDDFKYSQKFQGKATLTADTSASTAYVELSSLRSEDTAVYFCTRSLNMAYWGQGTLVTVSS VL: DIVMSQSPDSLAVSLGERVTLNCKSSQSLLYSGNQKNYLAWYQQKPGQSPKLLIYWASARESGVPDRFSGSGSGTDFTLTISSVQAEDVAVYYCQQYYSYPLSFGAGTKLELK | – | – | – | – | – | – | –
2 to 3 fold | 1.4e+08 M⁻¹ | HuCC49 variant ^97L1,2 (antibody, V domains shown) VH: QVQLVQSGAEVVKPGASVKISCKASGYTFTDHAIHWVKQNPGQRLEWIGYFSPGNDDFKYNERFKGKATLTADTSASTAYVELSSLRSEDTAVYFCTRSLNMAYWGQGTLVTVSS VL: DIVMSQSPDSLAVSLGERVTLNCKSSQSVLYSSNSKNYLAWYQQKPGQSPKLLIYWASTRESGVPDRFSGSGSGTDFTLTISSVQAEDVAVYYCQQYYSYPLSFGAGTKLELK | – | – | – | – | – | – | –
3 fold | – | HuCC49 variant MAb ^97L1,2/^60-62,64H (antibody, V domains shown) VH: QVQLVQSGAEVVKPGASVKISCKASGYTFTDHAIHWVKQNPGQRLEWIGYFSPGNDDFKYSQKFQGKATLTADTSASTAYVELSSLRSEDTAVYFCTRSLNMAYWGQGTLVTVSS VL: DIVMSQSPDSLAVSLGERVTLNCKSSQSVLYSSNSKNYLAWYQQKPGQSPKLLIYWASTRESGVPDRFSGSGSGTDFTLTISSVQAEDVAVYYCQQYYSYPLSFGAGTKLELK | – | – | – | – | – | – | percent competition at 1 Tg [9]: < 25%
– | – | HuCC49 CDR variant H-3 (antibody, V domains shown) VH: QVQLVQSGAEVVKPGASVKISCKASGYTFTDHAIHWVKQNPGQRLEWIGYFSPGNDDFKYNERFKGKATLTADTSASTAYVELSSLRSEDTAVYFCTRGGYYGSGSGSNYWGQGTLVTVSS VL: DIVMSQSPDSLAVSLGERVTLNCKSSQSLLYSGNQKNYLAWYQQKPGQSPKLLIYWASARESGVPDRFSGSGSGTDFTLTISSVQAEDVAVYYCQQYYSYPLTFGAGTKLELK | 4.6% | 7.3% | 6.7% | 3.7% | 5.1% | 8.2% | amount of competitor for 50% inhibition of complex formation [8]: 0.4 Tg
– | 3.6e+08 M⁻¹ | HuCC49 SDR variant ^97L (antibody, V domains shown) VH: QVQLVQSGAEVVKPGASVKISCKASGYTFTDHAIHWVKQNPGQRLEWIGYFSPGNDDFKYNERFKGKATLTADTSASTAYVELSSLRSEDTAVYFCTRSLNMAYWGQGTLVTVSS VL: DIVMSQSPDSLAVSLGERVTLNCKSSQSLLYSGNQKNYLAWYQQKPGQSPKLLIYWASARESGVPDRFSGSGSGTDFTLTISSVQAEDVAVYYCQQYYSYPLSFGAGTKLELK | – | – | – | – | – | – | –
– | 3.2e+08 M⁻¹ | humanized monoclonal antibody HuCC49 (parental HuCC49) (antibody, V domains shown) VH: QVQLVQSGAEVVKPGASVKISCKASGYTFTDHAIHWVKQNPGQRLEWIGYFSPGNDDFKYNERFKGKATLTADTSASTAYVELSSLRSEDTAVYFCTRSLNMAYWGQGTLVTVSS VL: DIVMSQSPDSLAVSLGERVTLNCKSSQSLLYSGNQKNYLAWYQQKPGQSPKLLIYWASARESGVPDRFSGSGSGTDFTLTISSVQAEDVAVYYCQQYYSYPLTFGAGTKLELK | 3% | 0% | 1.5% | 2.6% | 0% | 0.5% | amount of competitor for 25% competition [9]: 60 ng; amount of competitor for 50% competition [9]: 250 ng
– | – | HuCC49 CDR variant L-3 (antibody, V domains shown) VH: QVQLVQSGAEVVKPGASVKISCKASGYTFTDHAIHWVKQNPGQRLEWIGYFSPGNDDFKYNERFKGKATLTADTSASTAYVELSSLRSEDTAVYFCTRSLNMAYWGQGTLVTVSS VL: DIVMSQSPDSLAVSLGERVTLNCKSSQSLLYSGNQKNYLAWYQQKPGQSPKLLIYWASARESGVPDRFSGSGSGTDFTLTISSVQAEDVAVYYCQQYYSTPYSFGAGTKLELK | 46.7% | 34.8% | 33.5% | 22.4% | 48.2% | 37.6% | –
– | 2.2e+08 M⁻¹ | HuCC49 SDR variant ^60-62,64H (antibody, V domains shown) VH: QVQLVQSGAEVVKPGASVKISCKASGYTFTDHAIHWVKQNPGQRLEWIGYFSPGNDDFKYSQKFQGKATLTADTSASTAYVELSSLRSEDTAVYFCTRSLNMAYWGQGTLVTVSS VL: DIVMSQSPDSLAVSLGERVTLNCKSSQSLLYSGNQKNYLAWYQQKPGQSPKLLIYWASARESGVPDRFSGSGSGTDFTLTISSVQAEDVAVYYCQQYYSYPLTFGAGTKLELK | – | – | – | – | – | – | –
300 fold | – | HuCC49 CDR variant H-2 (antibody, V domains shown) VH: QVQLVQSGAEVVKPGASVKISCKASGYTFTDHAIHWVKQNPGQRLEWIGWINAGNGNTKYSQKFQGKATLTADTSASTAYVELSSLRSEDTAVYFCTRSLNMAYWGQGTLVTVSS VL: DIVMSQSPDSLAVSLGERVTLNCKSSQSLLYSGNQKNYLAWYQQKPGQSPKLLIYWASARESGVPDRFSGSGSGTDFTLTISSVQAEDVAVYYCQQYYSYPLTFGAGTKLELK | 36.6% | 32.7% | 29.7% | 12.7% | 32.5% | 24.7% | fold more competitor for 50% inhibition than HuCC49 [10]: 4 to 15 fold; amount of competitor for 50% inhibition of complex formation [8]: > 10 Tg; fold more competitor for 50% inhibition than HuCC49 [11]: 4 to 15 fold
